Reference: the Immune Epitope Database (IEDB)

Tests used:
[1] = target: HLA-A*02:01; assay: IEDB peptide-MHC binding, purified MHC/direct/fluorescence; filed as Kd, often an IC50 or EC50 that approximates it; ≥ and ≤ were set here for values at or beyond the usual limits of such assays
[2] = target: HLA-A*03:01; assay: as above
[3] = target: HLA-A*30:01; assay: as above
[4] = target: HLA-A*01:01; assay: as above
[5] = target: HLA-B*40:01; assay: as above
[6] = target: HLA-A*31:01; assay: as above
[7] = target: HLA-B*58:01; assay: as above
[8] = target: HLA-B*07:02; assay: as above
[9] = target: HLA-A*26:01; assay: as above
[10] = target: HLA-A*11:01; assay: as above
[11] = target: HLA-B*44:02; assay: as above
[12] = target: HLA-B*08:01; assay: as above
[13] = target: HLA-B*27:05; assay: as above
[14] = target: HLA-A*69:01; assay: as above
[15] = target: HLA-B*15:17; assay: as above; conditions: source organism: Cryptosporidium parvum
[16] = target: HLA-B*35:01; assay: as above
[17] = target: HLA-C*15:02; assay: as above; conditions: source organism: Cryptosporidium parvum
[18] = target: HLA-B*15:01; assay: as above
[19] = target: HLA-B*57:01; assay: as above; conditions: source organism: Cryptosporidium parvum
[20] = target: HLA-B*58:01; assay: IEDB peptide-MHC binding, purified MHC/competitive/fluorescence; filed as Kd, often an IC50 or EC50 that approximates it; ≥ and ≤ were set here for values at or beyond the usual limits of such assays; conditions: source organism: Mycobacterium tuberculosis C
[21] = target: HLA-A*24:03; assay: IEDB peptide-MHC binding, purified MHC/direct/fluorescence; filed as Kd, often an IC50 or EC50 that approximates it; ≥ and ≤ were set here for values at or beyond the usual limits of such assays
[22] = target: HLA-A*23:01; assay: IEDB peptide-MHC binding, purified MHC/competitive/fluorescence; filed as Kd, often an IC50 or EC50 that approximates it; ≥ and ≤ were set here for values at or beyond the usual limits of such assays
[23] = target: HLA-B*15:17; assay: as above; conditions: source organism: Streptococcus pneumoniae TIGR4
[24] = target: HLA-A*02:01; assay: as above; conditions: source organism: Streptococcus pneumoniae TIGR4
[25] = target: HLA-B*27:03; assay: as above; conditions: source organism: Streptococcus pneumoniae TIGR4
[26] = target: HLA-A*03:01; assay: as above; conditions: source organism: Streptococcus pneumoniae TIGR4
[27] = target: HLA-B*18:01; assay: as above; conditions: source organism: Streptococcus pneumoniae TIGR4
[28] = target: HLA-A*29:02; assay: as above; conditions: source organism: Streptococcus pneumoniae TIGR4
[29] = target: HLA-A*24:03; assay: as above; conditions: source organism: Streptococcus pneumoniae TIGR4
[30] = target: HLA-B*51:01; assay: as above; conditions: source organism: Streptococcus pneumoniae TIGR4
[31] = target: HLA-A*26:01; assay: as above; conditions: source organism: Streptococcus pneumoniae TIGR4
[32] = target: HLA-A*68:02; assay: as above; conditions: source organism: Streptococcus pneumoniae TIGR4
[33] = target: HLA-B*57:01; assay: as above; conditions: source organism: Streptococcus pneumoniae TIGR4
[34] = target: HLA-B*46:01; assay: as above; conditions: source organism: Streptococcus pneumoniae TIGR4
[35] = target: HLA-A*69:01; assay: as above; conditions: source organism: Streptococcus pneumoniae TIGR4
[36] = source organism: Vibrio vulnificus
[37] = source organism: Cryptosporidium parvum
[38] = source organism: Vibrio cholerae
[39] = source organism: Giardia lamblia ATCC 50803
[40] = source organism: Collimonas fungivorans

Sequence: QKDINTPGY
- Kd [1, 36]: 15.5 µM
- Kd [2, 36]: ≥ 20 µM
- Kd [3, 36]: 9.37 µM
- Kd [4, 36]: ≥ 20 µM
- Kd [5, 36]: ≥ 20 µM
- Kd [6, 36]: ≥ 20 µM
- Kd [7, 36]: ≥ 20 µM
- Kd [8, 36]: ≥ 20 µM
- Kd [9, 36]: ≥ 20 µM
- Kd [10, 36]: ≥ 20 µM
- Kd [11, 36]: ≥ 20 µM
- Kd [12, 36]: ≥ 20 µM
- Kd [13, 36]: ≥ 20 µM
- Kd [14, 36]: ≥ 20 µM

Sequence: ISCQIYNAL
- Kd [15]: 0.0826 µM
- Kd [1, 37]: ≥ 20 µM
- Kd [2, 37]: ≥ 20 µM
- Kd [16, 37]: 0.169 µM
- Kd [4, 37]: ≥ 20 µM
- Kd [5, 37]: 0.192 µM
- Kd [6, 37]: ≥ 20 µM
- Kd [8, 37]: ≥ 20 µM
- Kd [17]: 0.385 µM
- Kd [9, 37]: ≥ 20 µM
- Kd [10, 37]: ≥ 20 µM
- Kd [18, 37]: 0.27 µM
- Kd [11, 37]: ≥ 20 µM
- Kd [12, 37]: ≥ 20 µM
- Kd [19]: ≥ 20 µM
- Kd [13, 37]: ≥ 20 µM
- Kd [14, 37]: ≥ 20 µM

Sequence: RSFRIHILF
- Kd ([18]; source organism: Mycobacterium tuberculosis): ≥ 10 µM
- Kd [20]: 4.4 µM

Sequence: GEHWLGRIW
- Kd [1, 38]: ≥ 20 µM
- Kd [2, 38]: ≥ 20 µM
- Kd [16, 38]: ≥ 10 µM
- Kd [3, 38]: ≥ 20 µM
- Kd [4, 38]: ≥ 20 µM
- Kd [5, 38]: 0.858 µM
- Kd [6, 38]: ≥ 20 µM
- Kd [7, 38]: 19.4 µM
- Kd [8, 38]: ≥ 20 µM
- Kd [9, 38]: ≥ 20 µM
- Kd [10, 38]: ≥ 20 µM
- Kd [18, 38]: ≥ 20 µM
- Kd [11, 38]: 3.83 µM
- Kd [12, 38]: ≥ 20 µM
- Kd [13, 38]: 13.1 µM
- Kd [14, 38]: ≥ 20 µM

Sequence: VPPTNSINK
- Kd [1, 37]: ≥ 20 µM
- Kd [2, 37]: ≥ 20 µM
- Kd [16, 37]: 15 µM
- Kd [4, 37]: ≥ 20 µM
- Kd [5, 37]: ≥ 20 µM
- Kd [21, 37]: ≥ 20 µM
- Kd [6, 37]: ≥ 20 µM
- Kd [7, 37]: ≥ 20 µM
- Kd [9, 37]: ≥ 20 µM
- Kd [10, 37]: ≥ 20 µM
- Kd [18, 37]: ≥ 10 µM
- Kd [11, 37]: ≥ 20 µM
- Kd [12, 37]: ≥ 20 µM
- Kd [13, 37]: ≥ 20 µM
- Kd [14, 37]: ≥ 20 µM

Sequence: IWQWIHHEK
- Kd ([22]; source organism: Salmonella enterica subsp. enterica serovar Typhi): 0.178 µM

Sequence: YQVEGATRV
- Kd [23]: ≥ 20 µM
- Kd [24]: 0.0017 µM
- Kd [25]: ≥ 20 µM
- Kd [26]: ≥ 20 µM
- Kd [27]: ≥ 20 µM
- Kd ([22]; source organism: Streptococcus pneumoniae TIGR4): ≥ 20 µM
- Kd [28]: ≥ 20 µM
- Kd [29]: ≥ 20 µM
- Kd [30]: ≥ 20 µM
- Kd [31]: ≥ 20 µM
- Kd [32]: ≥ 20 µM
- Kd [33]: ≥ 20 µM
- Kd [34]: ≥ 20 µM
- Kd [35]: ≥ 20 µM

Sequence: SYPPPPASF
- Kd [1, 39]: ≥ 20 µM
- Kd [2, 39]: ≥ 20 µM
- Kd [16, 39]: 1.59 µM
- Kd [3, 39]: ≥ 44.4 µM
- Kd [4, 39]: ≥ 20 µM
- Kd [5, 39]: ≥ 20 µM
- Kd [21, 39]: 0.00084 µM
- Kd [7, 39]: ≥ 20 µM
- Kd [9, 39]: ≥ 20 µM
- Kd [10, 39]: ≥ 20 µM
- Kd [18, 39]: ≥ 10 µM
- Kd [11, 39]: ≥ 20 µM
- Kd [12, 39]: ≥ 20 µM
- Kd [13, 39]: ≥ 20 µM
- Kd [14, 39]: ≥ 20 µM

Sequence: AYSPFAFKK
- Kd [1, 40]: ≥ 20 µM
- Kd [2, 40]: 2.28 µM
- Kd [3, 40]: 0.00979 µM
- Kd [4, 40]: ≥ 20 µM
- Kd [5, 40]: ≥ 20 µM
- Kd [21, 40]: 2.4 µM
- Kd [7, 40]: ≥ 20 µM
- Kd [8, 40]: ≥ 20 µM
- Kd [9, 40]: ≥ 20 µM
- Kd [10, 40]: 0.168 µM
- Kd [18, 40]: ≥ 20 µM
- Kd [12, 40]: ≥ 20 µM
- Kd [13, 40]: ≥ 20 µM
- Kd [14, 40]: ≥ 20 µM
